In IntAct's records for PubMed 16357825:

B1: Retinal rod rhodopsin-sensitive cGMP 3',5'-cyclic phosphodiesterase subunit gamma (Homo sapiens), P18545 (parent)
chain: MNLEPPKAEFRSATRVAGGPVTPRKGPPKFKQRQTRQFKSKPPKKGVQGFGDDIPGMEGLGTDITVICPWEAFNHLELHELAQYGII
B2: Retinal rod rhodopsin-sensitive cGMP 3',5'-cyclic phosphodiesterase subunit gamma (Homo sapiens), P18545 (parent)
chain: B1 chain
partner: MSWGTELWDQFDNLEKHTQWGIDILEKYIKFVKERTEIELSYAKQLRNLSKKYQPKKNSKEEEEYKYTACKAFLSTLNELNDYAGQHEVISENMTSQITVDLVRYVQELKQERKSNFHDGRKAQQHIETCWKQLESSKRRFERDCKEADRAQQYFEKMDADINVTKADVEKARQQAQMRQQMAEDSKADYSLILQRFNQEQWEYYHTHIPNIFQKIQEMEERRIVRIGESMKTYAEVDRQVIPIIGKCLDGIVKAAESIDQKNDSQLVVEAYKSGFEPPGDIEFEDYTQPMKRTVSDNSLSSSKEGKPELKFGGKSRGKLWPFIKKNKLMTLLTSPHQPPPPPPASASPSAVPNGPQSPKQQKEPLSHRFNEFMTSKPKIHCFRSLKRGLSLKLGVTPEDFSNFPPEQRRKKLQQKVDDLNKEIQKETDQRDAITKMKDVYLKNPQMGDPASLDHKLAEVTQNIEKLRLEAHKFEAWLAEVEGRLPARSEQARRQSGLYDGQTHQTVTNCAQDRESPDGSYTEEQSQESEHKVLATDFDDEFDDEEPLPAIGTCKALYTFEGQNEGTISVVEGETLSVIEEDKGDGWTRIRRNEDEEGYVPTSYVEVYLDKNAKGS

Tests used:
[1] = variants of: B1; conditions: with pacn2_rat Pacsin2, Q9QY17
grb2_rat Grb2, P62994 = variants of: B1; conditions: with grb2_rat Grb2, P62994
src_rat Src, Q9WUD9 = variants of: B1; conditions: with src_rat Src
fnbp1_rat Fnbp1, Q8R511 = variants of: B2; conditions: with fnbp1_rat Fnbp1, Q8R511

effect of a mutation on the interaction [1] | effect of a mutation on the interaction (grb2_rat Grb2, P62994) | effect of a mutation on the interaction (src_rat Src, Q9WUD9) | effect of a mutation on the interaction (fnbp1_rat Fnbp1, Q8R511) | Variant
decreasing interaction | decreasing interaction | disrupting interaction | – | MNLEPPKAEFRSATRVAGGPVTARKGPPKFKQRQTRQFKSKPPKKGVQGFGDDIPGMEGLGTDITVICPWEAFNHLELHELAQYGII
decreasing interaction | decreasing interaction | disrupting interaction | – | MNLEPPKAEFRSATRVAGGAVTPRKGPPKFKQRQTRQFKSKPPKKGVQGFGDDIPGMEGLGTDITVICPWEAFNHLELHELAQYGII
– | – | – | disrupting interaction | MNLEPPKAEFRSATRVAGGPVTARKGPPKFKQRQTRQFKSKPPKKGVQGFGDDIPGMEGLGTDITVICPWEAFNHLELHELAQYGII
– | – | – | disrupting interaction | MNLEPPKAEFRSATRVAGGAVTPRKGPPKFKQRQTRQFKSKPPKKGVQGFGDDIPGMEGLGTDITVICPWEAFNHLELHELAQYGII
